Reference: publication PMC5893371 (Nature medicine, 2018)
Read-outs that look alike come from different tables or passages of the source. No end group written: not given here.

Columns and labels:
[1] = molecular target: recombinant PfCSP (rPfCSP), Plasmodium falciparum circumsporozoite protein residues 21-375 (Plasmodium falciparum 3D7 (clone of …, UniProt Q7K740)); experiment: ITC
PfCSP peptide 25 [2] = molecular target: T1, PfCSP peptide 25 (Plasmodium falciparum, UniProt Q7K740, position 102 (from Pro to Val)); experiment: crystal structure
T1 chain: NVDPNANPNVDPNAN

PfCSP peptide 20 [3] = molecular target: T2, PfCSP peptide 20 (Plasmodium falciparum); experiment: crystal structure
T2 chain: PADGNPDPNANPNVD

biotinylated peptide 21 = molecular target: T3, biotinylated peptide 21 (Plasmodium falciparum, also: biotin, position not given here); experiment: BLI
T3 chain: NPDPNANPNVDPNAN

PfCSP peptide 25 [4] = molecular target: T1, PfCSP peptide 25; experiment: ELISA
PfCSP peptide 25 [5] = molecular target: T1, PfCSP peptide 25; experiment: crystal structure
PfCSP peptide 20 [6] = molecular target: T2, PfCSP peptide 20; experiment: crystal structure

B1: mAb CIS42 (antibody, V domains shown)
VH: QVQLVQSGSELKKPGASVKVSCKTSGYTFTTYAMNWVRQAPGQGLEWMGWINTNTGNPTYAPGFTGRFVFSFDTSVSTAYLQISSLKAEDTAVYYCARVYSYGVPFDYWGQGTLVTVSS
VL: QSVLTQPASVSGSPGQSITISCTATSSNVGSFNLVSWYQHHPGKAPKLIIHEVSKRPSGASNRFSGSKSGNTASLTISGLQAEDEADYYCCSYVGSDTWVFGGGTKLTV
Which Kd [1] does the source give for B1 here?
The Kd was 51 nM.

What about the “stoichiometry N” value [1] of the same binder?
The value was 7.

B2: CIS42 Fab (Fab, V domains shown)
VH: B1 VH
VL: B1 VL
What does the source list for B2?
binding result (PfCSP peptide 25 [2]): binds; binding result (PfCSP peptide 20 [3]): binds

B3: mAb CIS43 (antibody, V domains shown)
VH: QVQLVQSGAEVKKPGASVKVSCKASGYTFTSYAIHWVRQAPGQRLEWMGWIKAGNGNTRYSQKFQDRVTITRDTSTTTAYMELSSLRSEDTAVYYCALLTVLTPDDAFDIWGQGTMVTVSS
VL: not shown
B3 was tested. Which Kd (biotinylated peptide 21) did it give?
The Kd was under 0.001 nM.

Does B3 bind (PfCSP peptide 25 [4])?
Result: binds

What about the “KD of the first binding event” value [1] of the same binder?
The value was 7.9 nM.

What about the “KD of the second binding event” value [1] of the same binder?
Its value is 42 nM.

B4: CIS43 Fab (Fab, V domains shown)
VH: B3 VH
VL: not shown
Which results are given for B4?
KD of the first binding event [1]: 16 nM; KD of the second binding event [1]: 250 nM; binding result (PfCSP peptide 25 [5]): binds; binding result (PfCSP peptide 20 [6]): binds
